Target: T1, ZC3H12B PIN + C3H1 crystallization construct (Homo sapiens, UniProt Q5HYM0 179-380)
T1 sequence: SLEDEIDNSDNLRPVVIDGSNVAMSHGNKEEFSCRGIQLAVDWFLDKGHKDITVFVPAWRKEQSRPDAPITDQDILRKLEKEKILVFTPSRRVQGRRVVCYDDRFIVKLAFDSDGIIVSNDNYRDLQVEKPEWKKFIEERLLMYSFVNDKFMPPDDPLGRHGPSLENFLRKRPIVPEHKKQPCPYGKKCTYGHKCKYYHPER
Test: X-ray crystallography

B1: 21-nt HTR-SELEX-enriched RNA (ssRNA)
RNA: AAUGCGACAGUCGGUAGCAUC
modifications: phosphorothioate between nt 1 and 2 (5' end)
- binding result: binds

From publication PMC7397871
